Values joined by “and” are separate entries in the source; they are usually repeats but may differ in a detail not shown here. Equal entries are not always repeated. Where two headings read alike, the source gives them in different places.
B1: MIRO1_(177-591) (domain or fragment)
chain: EEKEMKPACIKALTRIFKISDQDNDGTLNDAELNFFQRICFNTPLAPQALEDVKNVVRKHISDGVADSGLTLKGFLFLHTLFIQRGRHETTWTVLRRFGYDDDLDLTPEYLFPLLKIPPDCTTELNHHAYLFLQSTFDKHDLDRDCALSPDELKDLFKVFPYIPWGPDVNNTVCTNERGWITYQGFLSQWTLTTYLDVQRCLEYLGYLGYSILTEQESQASAVTVTRDKKIDLQKKQTQRNVFRCNVIGVKNCGKSGVLQALLGRNLMRQKKIREDHKSYYAINTVYVYGQEKYLLLHDISESEFLTEAEIICDVVCLVYDVSNPKSFEYCARIFKQHFMDSRIPCLIVAAKSDLHEVKQEYSISPTDFCRKHKMPPPQAFTCNTADAPSKDIFVKLTTMAMYPHVTQADLKSST
B2: MBP-TRAK1_(342-431) (domain or fragment)
chain: EAQEELKNLRNKTMPNTTSRRYHSLGLFPMDSLAAEIEGTMRKELQLEEAESPDITHQKRVFETVRNINQVVKQRSLTPSPMNIPGSNQS

Legend:
[1] = biological target: T1, MBP-TRAK1_(342-431) ^400KR^401 to AA (human, UniProt Q9UPV9 342-431, ^400KR^401 to AA); test: ITC; 5 mM EGTA, 1 mM MgCl2, 0.1 uM GTP; reverse titration, experiment 2
T1 sequence: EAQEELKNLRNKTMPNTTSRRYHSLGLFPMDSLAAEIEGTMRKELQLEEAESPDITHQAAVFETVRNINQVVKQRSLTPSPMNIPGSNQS

[2] = biological target: T1, MBP-TRAK1_(342-431) ^400KR^401 to AA; test: ITC; 5 mM EGTA, 1 mM MgCl2, 0.1 uM GTP; reverse titration, experiment 1
[3] = biological target: T1, MBP-TRAK1_(342-431) ^400KR^401 to AA; test: ITC; 5 mM EGTA, 1 mM MgCl2, 0.1 uM GTP; experiment 3
GCN4-TRAK1_(342-431) = biological target: T2, GCN4-TRAK1_(342-431) ( | human, UniProt Q9UPV9 342-431); test: ITC
T2 chain: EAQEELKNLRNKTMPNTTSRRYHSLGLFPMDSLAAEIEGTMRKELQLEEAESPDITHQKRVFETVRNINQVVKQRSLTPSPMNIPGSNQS

MBP-TRAK1_(342-431) = biological target: B2; test: ITC
[4] = biological target: T1, MBP-TRAK1_(342-431) ^400KR^401 to AA; test: ITC; 5 mM EGTA, 1 mM MgCl2, 0.1 uM GTP; reverse titration, experiment 3
[5] = biological target: T1, MBP-TRAK1_(342-431) ^400KR^401 to AA; test: ITC; 5 mM EGTA; MIRO1 in syringe
[6] = biological target: T1, MBP-TRAK1_(342-431) ^400KR^401 to AA; test: ITC; 5 mM EGTA, 1 mM MgCl2, 0.1 uM GTP; experiment 2
[7] = biological target: T1, MBP-TRAK1_(342-431) ^400KR^401 to AA; test: ITC; 5 mM EGTA, 1 mM MgCl2, 0.1 uM GTP; experiment 1
[8] = biological target: T1, MBP-TRAK1_(342-431) ^400KR^401 to AA; test: ITC; 5 mM EGTA; TRAK1 in syringe
MIRO1_(177-591) [9] = biological target: B1; test: ITC
MIRO1_(177-591) [10] = biological target: B1; test: ITC; remark: listed apart in the source
MIRO1_(177-591) E208A [11] = biological target: T3, MIRO1_(177-591) E208A (human, UniProt Q8IXI2 177-591, E208A); test: ITC; 5 mM EGTA
MIRO1_(177-591) E328A [12] = biological target: T4, MIRO1_(177-591) E328A (human, UniProt Q8IXI2 177-591, E328A); test: ITC; 5 mM EGTA
MIRO1_(177-591) E208A [13] = biological target: T3, MIRO1_(177-591) E208A; test: ITC; 5 mM EGTA, 1 mM MgCl2, 0.1 uM GTP; experiment 3
MIRO1_(177-591) E328A [14] = biological target: T4, MIRO1_(177-591) E328A; test: as above
MIRO1_(177-591) E208A [15] = biological target: T3, MIRO1_(177-591) E208A; test: ITC; 5 mM EGTA, 1 mM MgCl2, 0.1 uM GTP; experiment 2
MIRO1_(177-591) E328A [16] = biological target: T4, MIRO1_(177-591) E328A; test: as above
MIRO1_(177-591) E208A [17] = biological target: T3, MIRO1_(177-591) E208A; test: ITC; 5 mM EGTA, 1 mM MgCl2, 0.1 uM GTP; experiment 1
MIRO1_(177-591) E328A [18] = biological target: T4, MIRO1_(177-591) E328A; test: as above
MIRO1_(177-591) [19] = biological target: B1; test: ITC; remark: listed apart in the source

What does the source list for B1?
Kd [1]: 11.3 µM; Kd [2]: 7.52 µM; Kd [3]: 3.98 µM; Kd (GCN4-TRAK1_(342-431)): 3.52 µM and 9.35 µM; Kd (MBP-TRAK1_(342-431)): 5.95 µM and 6.02 µM and 8 µM and 5.38 µM; Kd [4]: 8.55 µM; Kd [5]: 7.52 µM; Kd [6]: 2.98 µM; Kd [7]: 4.39 µM; Kd [8]: 9.62 µM

PDITHQKRVFETVRNINQVVKQRSLTPSPMNIPGSNQSSAM [TRAK1_(394-434)] was tested. Which Kd (MIRO1_(177-591) [9]) did it give?
Its Kd is 9.62 µM and 6.1 µM and 5.65 µM.

What about the Kd (MIRO1_(177-591) [10]) of the same binder?
Its Kd is 4.39 µM.

Which Kd (MIRO1_(177-591) E208A [11]) does the source give for B2 here?
The Kd was 9.09 µM.

And the Kd (MIRO1_(177-591) E328A [12])?
The Kd was 10.1 µM.

What about the Kd (MIRO1_(177-591) E208A [13]) of the same binder?
Its Kd is 3.86 µM.

What about the Kd (MIRO1_(177-591) E328A [14]) of the same binder?
Its Kd is 10.3 µM.

What about the Kd (MIRO1_(177-591) E208A [15]) of the same binder?
The Kd was 9.09 µM.

And the Kd (MIRO1_(177-591) E328A [16])?
Its Kd is 10.1 µM.

What about the Kd (MIRO1_(177-591) E208A [17]) of the same binder?
The Kd was 8.85 µM.

And the Kd (MIRO1_(177-591) E328A [18])?
The Kd was 9.17 µM.

And the Kd (MIRO1_(177-591) [19])?
The Kd was 10.6 µM.

Reference: article PMC10746525 (2023)
